Results as given in the supplement of paper PMC12455559.
± gives the standard deviation of the averaged measurements.

Columns and labels:
[1] = purified protein yield per well (BCA); higher = higher soluble expression
How it was run: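 Each candidate enzyme was grown in E. coli C41(DE3) in a 2 mL autoinduction culture (100 µg/mL kanamycin; 2 h at 37 °C, then 40 h at 18 °C) and purified robotically via Ni-charged magnetic beads with SUMO protease cleavage. Purified protein yield per well was assessed using the Pierce Rapid Gold BCA kit. Readings below 25 ug (0.1 mg/mL) are beneath the detection threshold.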

[2] = PET hydrolysis, aromatic products released after 48 h (umol product/mg enzyme); higher = more PET depolymerization activity
How it was run: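 Candidate enzymes, made tagless by SUMO cleavage and purified on nickel beads, were added at 5 μg (50 μL) to 3.5 mg of either amorphous PET film or crystalline PET powder in 450 μL buffer. The sealed plates stood unshaken for 48 h at 40 or 60 °C. Activity on PET is the aromatic product found in the supernatant per mg enzyme, read at 260 and 280 nm against buffer blanks.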

[3] = melting temperature (DSF); higher = more thermostable
How it was run: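 Values are melting temperatures from differential scanning fluorimetry. Candidate enzymes were expressed in E. coli C41(DE3), purified on nickel beads and freed by SUMO protease cleavage. In sealed PCR plates on a Bio-Rad CFX96, 45 μL enzyme (0 to 0.3 mg/mL) was combined with 5 μL 5X Sypro Orange. Fluorescence was recorded from 25 °C for 250 cycles, rising 0.3 °C per cycle at a ramp of 0.3 °C/s.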

[4] = substrate: cryPow, 40 °C, pH 4.5
[5] = substrate: cryPow, 40 °C, pH 5.5
[6] = substrate: cryPow, 40 °C, pH 6.5
[7] = substrate: cryPow, 40 °C, pH 7.5
[8] = substrate: cryPow, 60 °C, pH 4.5
[9] = substrate: cryPow, 60 °C, pH 5.5
[10] = substrate: cryPow, 60 °C, pH 6.5
[11] = substrate: cryPow, 60 °C, pH 7.5
[12] = substrate: cryPow, 40 °C, pH 8.5
[13] = substrate: cryPow, 60 °C, pH 8.5
[14] = substrate: aFilm, 40 °C, pH 5.5
[15] = substrate: aFilm, 40 °C, pH 6.5
[16] = substrate: aFilm, 40 °C, pH 7.5
[17] = substrate: aFilm, 60 °C, pH 5.5
[18] = substrate: aFilm, 60 °C, pH 6.5
[19] = substrate: aFilm, 60 °C, pH 7.5
[20] = substrate: aFilm, 40 °C, pH 4.5
[21] = substrate: aFilm, 60 °C, pH 4.5

| Sequence | purified protein yield per well [1] [µg] | PET hydrolysis [2, 4] | PET hydrolysis [2, 5] | PET hydrolysis [2, 6] | PET hydrolysis [2, 7] | PET hydrolysis [2, 8] | PET hydrolysis [2, 9] | PET hydrolysis [2, 10] | PET hydrolysis [2, 11] | melting temperature [3] [C] | PET hydrolysis [2, 12] | PET hydrolysis [2, 13] | PET hydrolysis [2, 14] | PET hydrolysis [2, 15] | PET hydrolysis [2, 16] | PET hydrolysis ([2]; substrate: aFilm, 40 °C, pH 8.5) | PET hydrolysis [2, 17] | PET hydrolysis [2, 18] | PET hydrolysis [2, 19] | PET hydrolysis ([2]; substrate: aFilm, 60 °C, pH 8.5) | PET hydrolysis [2, 20] | PET hydrolysis [2, 21] |
| --- | --- | --- | --- | --- | --- | --- | --- | --- | --- | --- | --- | --- | --- | --- | --- | --- | --- | --- | --- | --- | --- | --- |
| ADNPYQRGPDPTLASVSAQRGTFATAQVAVPAGDGFGGGMIYYPTDTSQGTFGAVAIVPGYTARFSVEEAWMGHWLASFGFVVIGVETNSTNDFDTARGTQLLAALDYLTQRSSVRDRVDASRQSVVGHSMGGGGALYAAGQRASLKAAVGLAPYKPSGNPTNVRVPTMIISGQNDTVVTPSYATGLYNTLPATTESAYMEFTGADHLFPTRANTLEMRILIPWLKIFVDSDNRYSQFLCPLQDSTGIRGYRSTCPFLPNPTTSPSTTAPTTPPTTPPTTPPTGACSATYRTVNSWPGGFQGEVTVSAGSTPVDGWAVRWTLASGQAVTQVWNGALSVSGSAVTVRNTTYNGSLGANASTTFGFLASGSPTPVSLTCTSP [ESM033] | 594 | 9 | 25 | 35 | 6 | < 3 | < 3 | < 3 | < 3 | 53.8 | – | – | – | – | – | – | – | – | – | – | – | – |
| ADNPYQRGPDPTLASVSATRGTFATAQVSVPAGNGFASGVIYYPTDTSQGTFGGVAIVPGYSALFANEEAWMGPWLASFGFVVIGIETNSRTDSADARGTQLLAALDYLTQRSAVRDRVDPNRLSVIGHSAGGAGVLSALLRRPTLKAAVGLAPGSPVGDYSLYNDRVPTMFISGERDTTVTRSYLNGLYTTIPASTPSAWVEITGVDHLFATRANTTEMRVLIPWLKIFLDNDTRYTQFLCPQLADPGNVSMYRNKCPYVPPGGSSPSASPSTSPSASPSTSPSASPSVSPSPSPSPSPSASPSTSRACTASYRTVNSWSGGFQGEVTVTAGTSAINGWTVGWTLSGGQTINQLWNGTLSANGSAVRVTNVSYNGSIPASGSSTFGFLGTGTPSNPTLTCTSP [ESM040] | 526 | < 3 | < 3 | < 3 | < 3 | < 3 | < 3 | < 3 | < 3 | 59.8 | – | – | – | – | – | – | – | – | – | – | – | – |
| ADNPYQRGPDPTNASIEAATGPFAVGTQPIVGASGFGGGQIYYPTDTSQTYGAVVIVPGFISVWAQLNWLGPRLASQGFVVIGIETSVITDLPDPRGDQALAALDWATTRSPVASRIDRTRLAAAGWSMGGGGLRRAALQRPSLKAIVGMAPWNGERNWSAVTVPTLFFGGSSDAVASPNDHAKPFYNSITRAEKDYIELRNADHFFPTSANTTMAKYFISWLKRWVDNDTRYTQFLCPGPSTGLFAPVSASMNTCPF [DP077] | 87 | – | 24 | 73 | 90 | – | 6 | 23 | 32 | 60.1 | 87 | 26 | – | – | – | – | – | – | – | – | – | – |
| ADNPYQRGPDPTPAGVAASRGPFATAQTTVAPGNGFNGGTIYYPTDTSAGTWGAVAIVPGYTALFADEEAWMGPWLSSFGFVVIGIETNSRTDFDVARGTQLLAALDYLTQQSPVRDRVDTSRLSVIGHSMGGGGVVYATEHRPSLKAAVALAPFSPSQDMSTDRVPTMVMAGQNDTVVTPSYLDGLYATMPAATQSDFVQIAGADHVYYTHPQSTEMRILIPWLKIFVDNDTRYTQFLCPSLSDSSGISIYRSKCPYVPPGTSTTGGTTSGTTSGGTTTGGTTSGGTTTGGTTSGGTTSGGTSGSACTASYATVNTWSGGFQGEVTVTAGGKPVNGWTVRWTLAGGQGISQVWNGTVSTSGSDVSVRNVSYNGSLQPSTSTTFGFLGTGTPSDVSLSCTSP [ESM043] | 31.4 | 4 | 11 | 5 | < 3 | – | – | – | – | 37 | – | – | – | – | – | – | – | – | – | – | – | – |
| ADNPYQRGPDPTPALVASVNGPFATASVSVPAGYGFGGGMIYYPTDTSQGTFGGIAISPGYTALFSAELAWMGPWLASHGFVVIGIETNNRNDFDEARGTQLLAALDYLTQQSPVRNRVDPNRLAVAGHSMGGGGALNAAIRRPSLKAAVGLAPFSPSSNLANDRVPTMVFSGQQDTVVTPSYVTGLYNSLPSTTQSAYLEIAGGDHGFPVGRPNQVMIRTMLPFVKIFVDYDTRYSPFLCPLSDTSGVVTYRSTCPLTPPGLPTTPPTTPPTTVPTSPPTGGPTTPPTTPSQPGGACTATYRTVNSWPGGFQGEVTVTAGNSAINGWTVRWTLDSGQAITQVWNGEVSTSGSTVSVRNAPYNGSLPPSGSTTFGFLSSGSPSSPSLTCTSP [DP059] | 255 | – | 5.5 ± 0.71 | 21.5 ± 3.5 | 35 ± 2.8 | – | 32.5 ± 2.1 | 47 ± 8.5 | 19.5 ± 3.5 | 74.2 | 32.5 ± 3.5 | 34 ± 1.4 | < 3 | < 3 | < 3 | < 3 | 2 ± 2.8 | < 3 | < 3 | < 3 | – | – |
| ADNPYQRGPDPTPASIAADHGPFATAQTTIPKGNGLGGGIVYYPTDTSQGTFGAIAIAPGYGTEWRWYGWLGPRLASFGFVVVGIETNSLSDYADARADQLLAALDWLVTSSPVRDRVDRTRLAVGGHSMGGGGALVAATRRPSLRSAVGMAPYVPDGILRGTSVPTILFGGQADTTVTPAYLASAYATIPATVPRAYPEIAGEGHGFAAGGGGGNSGAFARVMMVWLKVFVDADTRYPPFLCPTLSNTSGISKYQASCPLGPGGTIPPPDTSRLANANAGRCLDASGAGTANGTKVILWTCNHGANQQWNRT [ESM139] | 305 | < 3 | < 3 | 1.5 ± 2.1 | 3.5 ± 0.71 | < 3 | < 3 | < 3 | < 3 | 65.5 | – | – | < 3 | < 3 | < 3 | – | < 3 | < 3 | < 3 | – | < 3 | < 3 |
| ADNPYQRGPDPTPASVGASRGTFATAQVSVPAGNGFGGGVIYYPTDTSQGRFGAVAVVPGYTATWAAEGAWMGPWLASFGFVVIGIDTNSRNDWDTARGTQLLAALDYLTQRSSVRDRVDASRAAVMGHSMGGGGAIYAALQRPSLKTTVGLAPFSASQTLNNMRVPTMLLAGQNDGTTTPASIRNYYGQVPSGVEKAYLELTGAGHGFPTSNNPTMMRNVIPWLKIFVDSDTRYTQFLCPLSNTNGIRSYESTCPLVPSPVPTDPPTSAPPTSTPPTTPPPTTPPPTTPAPGGPCAASYRTVNSWSGGFQGEVTVRAGGAPINGWTVRWTLGGGQSISQVWNGTLSTSGSTATVRNAPYNGSLPASGSTTFGFIANGSPSAPTLTCASP [TEP013] | 176 | < 3 | 5.5 ± 0.71 | 27 ± 1.4 | 53.5 ± 2.1 | < 3 | < 3 | 6 ± 1.4 | 10 ± 1.4 | 64 | – | – | < 3 | < 3 | < 3 | – | < 3 | < 3 | < 3 | – | < 3 | < 3 |
| ADNPYQRGPDPTPASVSANRGTFATAQISVPAGNGFGGGVIYHPTDTSQGTFGAIAVVPGYTATWAAEGAWMGHWLASFGFVVIGIDTNSRNDWDTARGTQLLAALDYLTQRSPVRDRVDANRTAVMGHSMGGGGAMHAALQRPSLKAAIGLAPFSPSQNLTTTRVPTMLLAGQSDTTTTPASILNLYNGIPAATEKAYLELTGAGHGFPTSNNPTMMRNVIPWLKIFVDSDTRYTQFLCSLSNWDGIRAYQSTCPLVPSPVPTTTSTTSTTTTISTTTTTPAPGDACSATYRTTNSWPGGYQAEVTVTAGNTAVNGWNVQWTLGSGQTVTQVWNGTLNVSGSTASVRNASYNGSLQANTSTTFGFIGGGTPPTSSLSCTSP [ESM035] | 510 | < 3 | < 3 | 7 ± 2.8 | 23.5 ± 0.71 | < 3 | < 3 | < 3 | < 3 | 57.4 | – | – | < 3 | < 3 | < 3 | – | < 3 | < 3 | < 3 | – | < 3 | < 3 |
| ADNPYQRGPDPTPQSISAPTGPFATASVTVPRQGNFGGGVIYYPTDTSQGTFGAVAISPGLNGTWPGIAWLGPRLSSQGFVVFGIDTLGLSDSTASRGSQLLAALDYLTQTSSVRTRVDSSRLAVAGHSMGGGGAFEAALRRPALKAAIPNAPFFPGSASNVRVPTLITAMQNDSLVGQNRNAYNGIPAGVEKAYVELAGAGHNQIGQPTTAIARNWIPWLKIFVDSDARYHQFLCPTTDMSGLSQYLNTCPLISTTPPTSSPSAQPTTPGPTGPPPGGACAATYRTVNSWSDGYQGEMTVQAGSSAINGWTVRWTMSGGQTISQVWNGTLVAGSGAAAVRNVAYNGSLAAGASTTFGFISSGTPSATSITCGSP [ESM081] | 182 | 4 | 17 | 45 | 82 | – | – | – | – | 68.2 | – | – | – | – | – | – | – | – | – | – | – | – |
| ADNPYQRGPDPTPQSISATTGPFATASVTVPRQGNFGGGVIYYPTDTSQGTFGAVAISPGLNGTWPGIAWLGPRLSSQGFVVFGIDTLGLNDSTASRGSQLLAALDYLTQTSSVRTRVDASRLAVAGHSMGGGGAFEAVLRRPTLKASIPNAPFFPGSAANVRVPTLITAMQNDSLVGQNRNAYNGIPAGVEKAYIELAGAGHNQIGQPTTAIARNWIPWLKIFVDNDARYHQFFCPTTNMSGLSQYLNTCPLTSATPPTSSPSAGPTTPGPTGPPPGGACAATYQTVNTWSGGYQGEMTVRAGNSAINGWTVRWTMGGGQISQVWNGTLVTGSGAAAVRNAPYNGALAAGATTTFGFISSGTPSATSLTCATP [ESM064] | 164 | < 3 | 11 | 10 | 74 | – | – | – | – | 63.1 | – | – | – | – | – | – | – | – | – | – | – | – |
| ADNPYQRGPDPTPTSVTAVNGPFANTSVAVPTGYGFNGGRIYYPTDTSQGTFGAIAISPGYTALFSAELAWMGPWLASHGFVVIGIETNSRNDFDTARGTQLLAALDYLTQQSPVRDRVDPNRLAVAGHSMGGGGALSAATRRSSLKAAVGIAPYSPSSNLANDRVPTMIFAGQADTVVTPSYASGLYNSLPATTESVYLEVAGADHGFMVGRSNPVMVRTMLPFVKMFIDNDTRYSQFLCPLMDSSGVVTSRSTCPLLPSDPTTPTPTPTTPDPTPTVPPGSASEIVGTQSGRCIDVPNASRTNGTRVQLYNCNRQTNQAWTYTSNKQLQVYGTMCLDAAGSGNGAAVQIYSCHSGTNQQWNVNSNGTISGVQSGRCLDVWSTSNGAQVQLYDCHGQTNQQFRLAPLG [ESM132] | 144 | < 3 | 5 | < 3 | < 3 | < 3 | < 3 | < 3 | < 3 | 56.2 | – | – | – | – | – | – | – | – | – | – | – | – |
